B1: GST-fused N-terminus of mouse AT1a receptor (aa 1-27) (domain or fragment, UniProt P29754 1-27, looked up)
chain: MALNSSTEDGIKRIQDDCPRAGRHSYI
notes: also called GST-fused N-terminus of AT1a; source: purified (vector pGEX-6P-1; host not clearly stated)
B2: β-arrestin-1 fused with Renilla luciferase (natural protein, UniProt P49407 1-418, looked up)
chain: MGDKGTRVFKKASPNGKLTVYLGKRDFVDHIDLVDPVDGVVLVDPEYLKERRVYVTLTCAFRYGREDLDVLGLTFRKDLFVANVQSFPPAPEDKKPLTRLQERLIKKLGEHAYPFTFEIPPNLPCSVTLQPGPEDTGKACGVDYEVKAFCAENLEEKIHKRNSVRLVIRKVQYAPERPGPQPTAETTRQFLMSDKPLHLEASLDKEIYYHGEPISVNVHVTNNTNKTVKKIKISVRQYADICLFNTAQYKCPVAMEEADDTVAPSSTFCKVYTLTPFLANNREKRGLALDGKLKHEDTNLASSTLLREGANREILGIIVSYKVKVKLVVSRGGLLGDLASSDVAVELPFTLMHPKPKEEPPHREVPENETPVDTNLIELDTNDDDIVFEDFARQRLKGMKDDKEEEEDGTGSPQLNNR
notes: β-arrestin-1; also called β-arrestin-1-RLuc; source: HEK293T, transfected, in cells
B3: AT1 receptor, residues 1-318, with N-terminal Flag-tag and BRIL (Flag-BRIL-AT1) (receptor, UniProt P30556 1-318, looked up)
chain: MILNSSTEDGIKRIQDDCPKAGRHNYIFVMIPTLYSIIFVVGIFGNSLVVIVIYFYMKLKTVASVFLLNLALADLCFLLTLPLWAVYTAMEYRWPFGNYLCKIASASVSFNLYASVFLLTCLSIDRYLAIVHPMKSRLRRTMLVAKVTCIIIWLLAGLASLPAIIHRNVFFIENTNITVCAFHYESQNSTLPIGLGLTKNILGFLFPFLIILTSYTLIWKALKKAYEIQKNKPRNDDIFKIIMAIVLFFFFSWIPHQIFTFLDVLIQLGIIRDCRIADIVDTAMPITICIAYFNNCLNPLFYGFLGKKFKRYFLQLLK
notes: Order on the chain as printed: Flag-tag, BRIL, AT1; Detergent-solubilised (DDM/CHS in the running buffer); also called purified AT1 receptor; AngII type 1 receptor
B4: cartilage oligomeric matrix protein with a C-terminal His-tag (COMP-His) (natural protein)
chain: not shown
notes: cartilage oligomeric matrix protein, mouse, cDNA NM_016685.2; secreted into the conditioned medium of Sf9 cells; also called purified COMP; pentameric COMP protein
B5: mouse COMP fused with the modified Renilla luciferase at the C-terminus (natural protein)
chain: not shown
notes: cartilage oligomeric matrix protein, mouse; also called COMP-RLuc; source: HEK293T, transfected; not shown: RLuc (modified Renilla luciferase), C-terminal, kept

What was measured:
[1] = target: T1, MBP-fusion protein of the COMP EGF domain (mouse, UniProt Q9R0G6 84-261); assay: pull-down; MBP fusion proteins of COMP domains and GST-fused AT1a N-terminus, equimolar, 4 °C 2 h; amylose resin; western blot with anti-GST; details: both partners purified
T1 construct: cartilage oligomeric matrix protein, mouse, EGF repeat domain; Vector pMAL-p5x; also called MBP-COMP-EGF; source: E. coli BL21, purified
T1 sequence (looked up): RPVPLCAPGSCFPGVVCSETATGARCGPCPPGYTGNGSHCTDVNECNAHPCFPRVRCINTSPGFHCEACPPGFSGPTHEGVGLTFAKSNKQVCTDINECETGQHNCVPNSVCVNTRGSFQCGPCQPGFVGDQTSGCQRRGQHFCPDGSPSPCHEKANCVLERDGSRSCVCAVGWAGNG

[2] = target: T2, YFP-tagged AT1 receptor ( (human AT1 or mouse AT1a …, UniProt P30556 1-359)); assay: FRET or BRET; HEK293T cells co-transfected with AT1-YFP and β-arrestin-1-RLuc or β-arrestin-2-RLuc; vehicle, then increasing AngII for 5 min; BRET ratio YFP/RLuc; details: partners not purified
T2 construct: also called AT1-YFP; Flag-tagged AT1-YFP; source: HEK293T, transfected, in cells
T2 sequence (looked up): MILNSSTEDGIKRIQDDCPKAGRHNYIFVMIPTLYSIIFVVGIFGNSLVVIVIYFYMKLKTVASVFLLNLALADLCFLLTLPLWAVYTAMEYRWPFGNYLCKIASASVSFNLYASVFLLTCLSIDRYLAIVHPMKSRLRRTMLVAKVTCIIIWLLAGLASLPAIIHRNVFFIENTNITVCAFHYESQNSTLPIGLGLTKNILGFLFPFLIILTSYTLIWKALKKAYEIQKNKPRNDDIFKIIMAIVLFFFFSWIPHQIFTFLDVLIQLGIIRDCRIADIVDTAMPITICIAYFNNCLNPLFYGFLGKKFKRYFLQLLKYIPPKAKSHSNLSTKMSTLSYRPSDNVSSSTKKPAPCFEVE

[3] = target: T2, YFP-tagged AT1 receptor; assay: FRET or BRET; as a12, cells pre-incubated with purified COMP (100 nM) for 30 min before AngII; details: partners not purified
[4] = target: B4; assay: SPR; BiaCore 8 K; AT1 amine-coupled to a CM5 chip (~4500 RU); analyte in two-fold dilutions (COMP 0.43–110 nM), 120 s association, 200 s dissociation; 10 mM HEPES pH 7.4, 150 mM NaCl, 0.05% P20, 0.01% DDM, 0.002% CHS; 1:1 binding model; details: both partners purified
[5] = target: the molecule itself; assay: SEC + native gel or EMSA; purified COMP; gel filtration chromatography and non-reduced native PAGE followed by western blotting; pentamer
[6] = target: the molecule itself; assay: native gel or EMSA; COMP-RLuc; 6% native PAGE without SDS and β-mercaptoethanol is the paper's method for the pentameric form of COMP; shown in Supplementary Fig. S11a

B1
binding result [1]: binds

B2
EC50 of AngII for the recruitment (BRET), vehicle [2]: 0.89 nM | EC50 of AngII for the recruitment (BRET), with 100 nM COMP [3]: 2.16 nM

B3
Kd [4]: 1.42 ± 0.014 nM

B4
stoichiometry N [5]: 5

B5
stoichiometry N [6]: 5

From paper PMC8249609 (Cell Research, 2021)
